Results: PMC10403316
“And” between values parts separate entries of the source, which are not always exact repeats. Identical values can stand only once.

How the values were obtained:
[1] = molecular target: human UBR5 E3 ubiquitin ligase, full length, with an N-terminal FLAG tag (human) (UniProt O95071); test: cryo-EM structure; settings: remark: other sources report otherwise
[2] = molecular target: human UBR5 E3 ubiquitin ligase, full length, with an N-terminal FLAG tag (human) (UniProt O95071); test: SEC; settings: remark: other sources report otherwise

In the case of “human UBR5 E3 ubiquitin ligase, full length, with an N-terminal FLAG tag, O95071 1-2799”, the stoichiometry N [1] is reported as 2 and the stoichiometry N [2] is reported as 2 and 4.
